Data from patent US20140087995A1 (published 2014).
Numbered stars: 1 amine (or outer) side, 2 acyl side, 3 side chain; on linkers, the order of the positions; unused ones are H or OH. Bridge positions count the residues as written; N and C are the ends. Side chains are listed from the residue outwards. Ends that are not written are not given here. * marks the point of attachment. C20 diacid = O=C(O)CCCCCCCCCCCCCCCCCCC(=O)*; γGlu = O=C(O)[C@H](CCC(=O)[*:2])N[*:1]; AEEA = NCCOCCOCC(=O)O

T1: rat calcitonin receptor (rat, UniProt P32214 25-516)
T1 construct: whole, on cells; Used as membranes prepared from the transfected cells; also called rCTR; rCT
T1 sequence (looked up): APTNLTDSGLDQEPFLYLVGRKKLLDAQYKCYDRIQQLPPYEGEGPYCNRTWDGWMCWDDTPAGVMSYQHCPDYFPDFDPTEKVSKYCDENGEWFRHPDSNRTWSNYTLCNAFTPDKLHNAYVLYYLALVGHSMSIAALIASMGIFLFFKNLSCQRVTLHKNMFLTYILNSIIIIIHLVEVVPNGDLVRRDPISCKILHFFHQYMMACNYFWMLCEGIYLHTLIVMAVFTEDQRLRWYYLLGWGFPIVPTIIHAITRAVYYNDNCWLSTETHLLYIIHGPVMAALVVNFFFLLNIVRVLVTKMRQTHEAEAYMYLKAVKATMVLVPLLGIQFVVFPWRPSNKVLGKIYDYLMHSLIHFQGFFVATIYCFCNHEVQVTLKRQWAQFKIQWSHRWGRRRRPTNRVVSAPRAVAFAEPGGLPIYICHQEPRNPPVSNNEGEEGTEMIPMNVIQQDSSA

T2: human calcitonin receptor (human, UniProt P30988 25-474)
T2 construct: whole, on cells; Used as membranes prepared from the transfected cells; also called hCTR; hCT
T2 sequence (looked up): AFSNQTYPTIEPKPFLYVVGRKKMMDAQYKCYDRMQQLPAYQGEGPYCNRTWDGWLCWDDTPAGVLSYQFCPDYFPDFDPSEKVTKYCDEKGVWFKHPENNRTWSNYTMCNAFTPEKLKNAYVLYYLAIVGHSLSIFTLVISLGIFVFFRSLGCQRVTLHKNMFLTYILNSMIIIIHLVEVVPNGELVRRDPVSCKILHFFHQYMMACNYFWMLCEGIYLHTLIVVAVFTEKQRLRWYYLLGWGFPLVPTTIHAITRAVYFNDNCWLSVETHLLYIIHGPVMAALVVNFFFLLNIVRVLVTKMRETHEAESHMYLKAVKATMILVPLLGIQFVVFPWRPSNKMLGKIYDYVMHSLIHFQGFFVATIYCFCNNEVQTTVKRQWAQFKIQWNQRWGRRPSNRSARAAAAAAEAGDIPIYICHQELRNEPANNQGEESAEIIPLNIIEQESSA

T3: rat amylin receptor (rat calcitonin receptor with rat RAMP 3) (rat, UniProt P32214 25-516; Q9JJ73 23-147)
T3 construct: whole, on cells; Used as membranes prepared from the transfected cells; also called rAmylin-R; rAmylin
T3 sequence (looked up) 1: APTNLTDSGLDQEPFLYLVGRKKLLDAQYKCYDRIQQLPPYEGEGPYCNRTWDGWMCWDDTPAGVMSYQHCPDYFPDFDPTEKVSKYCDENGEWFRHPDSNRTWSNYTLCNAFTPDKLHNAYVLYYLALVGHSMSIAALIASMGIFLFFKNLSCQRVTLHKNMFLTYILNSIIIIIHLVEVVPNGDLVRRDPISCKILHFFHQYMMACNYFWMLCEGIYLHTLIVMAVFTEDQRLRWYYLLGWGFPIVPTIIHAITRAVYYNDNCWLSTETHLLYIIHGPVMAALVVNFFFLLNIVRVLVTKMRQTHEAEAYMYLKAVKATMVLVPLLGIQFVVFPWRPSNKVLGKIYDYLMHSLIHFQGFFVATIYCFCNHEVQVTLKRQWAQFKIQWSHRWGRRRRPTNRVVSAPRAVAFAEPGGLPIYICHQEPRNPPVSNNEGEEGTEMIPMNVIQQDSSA
T3 sequence (looked up) 2: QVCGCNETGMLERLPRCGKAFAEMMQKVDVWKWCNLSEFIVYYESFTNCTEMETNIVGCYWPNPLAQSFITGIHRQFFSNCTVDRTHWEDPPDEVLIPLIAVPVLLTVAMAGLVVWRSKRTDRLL


Columns and labels:
rat calcitonin receptor [1] = molecular target: T1, rat calcitonin receptor; assay: ratio of binding IC50 at rat calcitonin receptor to IC50 at rat amylin receptor (reference)
rat calcitonin receptor [2] = molecular target: T1, rat calcitonin receptor; assay: SPA competition with 125I-calcitonin, membranes with rat calcitonin receptor (Assay VIII)
[3] = molecular target: T2, human calcitonin receptor; assay: ratio of binding IC50 at human calcitonin receptor to IC50 at human amylin receptor (reference)
Outline: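 Membranes (35 ng/μL final) + SPA beads, 50 mM Hepes pH 7.4 buffer with 1 mM CaCl2, 5 mM MgCl₂, 0.1% OA, 0.02% Tween20; 120 min, 25° C, shaking; centrifuged, counted; IC₅₀ by one-site binding competition.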

[4] = molecular target: T3, rat amylin receptor (rat calcitonin …); assay: SPA competition with 125I-rat amylin, membranes with rat calcitonin receptor + rat RAMP3 (Assay VI)

Ratio rCT/rAmylin binding (rat calcitonin receptor [1])	IC50 (rat calcitonin receptor [2]) [nM]	Ratio hCT/hAmylin binding [3]	IC50 [4] [nM]	Binder
118	62.2	79.6	0.529	K([AEEA-AEEA-γGlu-C20 diacid])CNTATCATQRLANFLRHSSPNFGAIPSSTPVGSNTY-NH2 (disulfide 2-7; N-terminus assumed; SMILES CC[C@H](C)[C@H](NC(=O)[C@H](C)NC(=O)CNC(=O)[C@H](Cc1ccccc1)NC(=O)[C@H](CC(N)=O)NC(=O)[C@@H]1CCCN1C(=O)[C@H](CO)NC(=O)[C@H](CO)NC(=O)[C@H](Cc1c[nH]cn1)NC(=O)[C@H](CCCNC(=N)N)NC(=O)[C@H](CC(C)C)NC(=O)[C@H](Cc1ccccc1)NC(=O)[C@H](CC(N)=O)NC(=O)[C@H](C)NC(=O)[C@H](CC(C)C)NC(=O)[C@H](CCCNC(=N)N)NC(=O)[C@H](CCC(N)=O)NC(=O)[C@@H](NC(=O)[C@H](C)NC(=O)[C@@H]1CSSC[C@H](NC(=O)[C@@H](N)CCCCNC(=O)COCCOCCNC(=O)COCCOCCNC(=O)CC[C@H](NC(=O)CCCCCCCCCCCCCCCCCCC(=O)O)C(=O)O)C(=O)N[C@@H](CC(N)=O)C(=O)N[C@@H]([C@@H](C)O)C(=O)N[C@@H](C)C(=O)N[C@@H]([C@@H](C)O)C(=O)N1)[C@@H](C)O)C(=O)N1CCC[C@H]1C(=O)N[C@@H](CO)C(=O)N[C@@H](CO)C(=O)N[C@H](C(=O)N1CCC[C@H]1C(=O)N[C@H](C(=O)NCC(=O)N[C@@H](CO)C(=O)N[C@@H](CC(N)=O)C(=O)N[C@H](C(=O)N[C@@H](Cc1ccc(O)cc1)C(N)=O)[C@@H](C)O)C(C)C)[C@@H](C)O, Analogue of human amylin; disulfide and C-terminal amide as told for h-amylin; also called compound 96)
176	24.1	74.1	0.137	K([AEEA-AEEA-γGlu-C20 diacid])CNTATCATQRLANFLRHSSPNFGAIPSSTNVGPNTY-NH2 (disulfide 2-7; N-terminus assumed; SMILES CC[C@H](C)[C@H](NC(=O)[C@H](C)NC(=O)CNC(=O)[C@H](Cc1ccccc1)NC(=O)[C@H](CC(N)=O)NC(=O)[C@@H]1CCCN1C(=O)[C@H](CO)NC(=O)[C@H](CO)NC(=O)[C@H](Cc1c[nH]cn1)NC(=O)[C@H](CCCNC(=N)N)NC(=O)[C@H](CC(C)C)NC(=O)[C@H](Cc1ccccc1)NC(=O)[C@H](CC(N)=O)NC(=O)[C@H](C)NC(=O)[C@H](CC(C)C)NC(=O)[C@H](CCCNC(=N)N)NC(=O)[C@H](CCC(N)=O)NC(=O)[C@@H](NC(=O)[C@H](C)NC(=O)[C@@H]1CSSC[C@H](NC(=O)[C@@H](N)CCCCNC(=O)COCCOCCNC(=O)COCCOCCNC(=O)CC[C@H](NC(=O)CCCCCCCCCCCCCCCCCCC(=O)O)C(=O)O)C(=O)N[C@@H](CC(N)=O)C(=O)N[C@@H]([C@@H](C)O)C(=O)N[C@@H](C)C(=O)N[C@@H]([C@@H](C)O)C(=O)N1)[C@@H](C)O)C(=O)N1CCC[C@H]1C(=O)N[C@@H](CO)C(=O)N[C@@H](CO)C(=O)N[C@H](C(=O)N[C@@H](CC(N)=O)C(=O)N[C@H](C(=O)NCC(=O)N1CCC[C@H]1C(=O)N[C@@H](CC(N)=O)C(=O)N[C@H](C(=O)N[C@@H](Cc1ccc(O)cc1)C(N)=O)[C@@H](C)O)C(C)C)[C@@H](C)O, Analogue of human amylin; disulfide and C-terminal amide as told for h-amylin; also called compound 98)
85.4	14.7	51.6	0.172	K([γGlu-C20 diacid])CNTATCATQRLAHFLRHSSPNFGAIPSSTNVGPNTY-NH2 (disulfide 2-7; N-terminus assumed; SMILES CC[C@H](C)[C@H](NC(=O)[C@H](C)NC(=O)CNC(=O)[C@H](Cc1ccccc1)NC(=O)[C@H](CC(N)=O)NC(=O)[C@@H]1CCCN1C(=O)[C@H](CO)NC(=O)[C@H](CO)NC(=O)[C@H](Cc1c[nH]cn1)NC(=O)[C@H](CCCNC(=N)N)NC(=O)[C@H](CC(C)C)NC(=O)[C@H](Cc1ccccc1)NC(=O)[C@H](Cc1c[nH]cn1)NC(=O)[C@H](C)NC(=O)[C@H](CC(C)C)NC(=O)[C@H](CCCNC(=N)N)NC(=O)[C@H](CCC(N)=O)NC(=O)[C@@H](NC(=O)[C@H](C)NC(=O)[C@@H]1CSSC[C@H](NC(=O)[C@@H](N)CCCCNC(=O)CC[C@H](NC(=O)CCCCCCCCCCCCCCCCCCC(=O)O)C(=O)O)C(=O)N[C@@H](CC(N)=O)C(=O)N[C@@H]([C@@H](C)O)C(=O)N[C@@H](C)C(=O)N[C@@H]([C@@H](C)O)C(=O)N1)[C@@H](C)O)C(=O)N1CCC[C@H]1C(=O)N[C@@H](CO)C(=O)N[C@@H](CO)C(=O)N[C@H](C(=O)N[C@@H](CC(N)=O)C(=O)N[C@H](C(=O)NCC(=O)N1CCC[C@H]1C(=O)N[C@@H](CC(N)=O)C(=O)N[C@H](C(=O)N[C@@H](Cc1ccc(O)cc1)C(N)=O)[C@@H](C)O)C(C)C)[C@@H](C)O, Analogue of human amylin; disulfide and C-terminal amide as told for h-amylin; also called compound 67)
280	111	46.3	0.397	K([γGlu-C20 diacid])CNTATCATQRLAAFLRHSSPNFGAIPSSTNVGPNTY-NH2 (disulfide 2-7; N-terminus assumed; SMILES CC[C@H](C)[C@H](NC(=O)[C@H](C)NC(=O)CNC(=O)[C@H](Cc1ccccc1)NC(=O)[C@H](CC(N)=O)NC(=O)[C@@H]1CCCN1C(=O)[C@H](CO)NC(=O)[C@H](CO)NC(=O)[C@H](Cc1c[nH]cn1)NC(=O)[C@H](CCCNC(=N)N)NC(=O)[C@H](CC(C)C)NC(=O)[C@H](Cc1ccccc1)NC(=O)[C@H](C)NC(=O)[C@H](C)NC(=O)[C@H](CC(C)C)NC(=O)[C@H](CCCNC(=N)N)NC(=O)[C@H](CCC(N)=O)NC(=O)[C@@H](NC(=O)[C@H](C)NC(=O)[C@@H]1CSSC[C@H](NC(=O)[C@@H](N)CCCCNC(=O)CC[C@H](NC(=O)CCCCCCCCCCCCCCCCCCC(=O)O)C(=O)O)C(=O)N[C@@H](CC(N)=O)C(=O)N[C@@H]([C@@H](C)O)C(=O)N[C@@H](C)C(=O)N[C@@H]([C@@H](C)O)C(=O)N1)[C@@H](C)O)C(=O)N1CCC[C@H]1C(=O)N[C@@H](CO)C(=O)N[C@@H](CO)C(=O)N[C@H](C(=O)N[C@@H](CC(N)=O)C(=O)N[C@H](C(=O)NCC(=O)N1CCC[C@H]1C(=O)N[C@@H](CC(N)=O)C(=O)N[C@H](C(=O)N[C@@H](Cc1ccc(O)cc1)C(N)=O)[C@@H](C)O)C(C)C)[C@@H](C)O, Analogue of human amylin; disulfide and C-terminal amide as told for h-amylin; also called compound 94)
27.7	311	65.3	11.2	{C20 diacid-γGlu}-GRCNTATCATQRLAHFLRHSSPNFGAIPSSTNVGHNTY-NH2 (disulfide 3-8; SMILES CC[C@H](C)[C@H](NC(=O)[C@H](C)NC(=O)CNC(=O)[C@H](Cc1ccccc1)NC(=O)[C@H](CC(N)=O)NC(=O)[C@@H]1CCCN1C(=O)[C@H](CO)NC(=O)[C@H](CO)NC(=O)[C@H](Cc1c[nH]cn1)NC(=O)[C@H](CCCNC(=N)N)NC(=O)[C@H](CC(C)C)NC(=O)[C@H](Cc1ccccc1)NC(=O)[C@H](Cc1c[nH]cn1)NC(=O)[C@H](C)NC(=O)[C@H](CC(C)C)NC(=O)[C@H](CCCNC(=N)N)NC(=O)[C@H](CCC(N)=O)NC(=O)[C@@H](NC(=O)[C@H](C)NC(=O)[C@@H]1CSSC[C@H](NC(=O)[C@H](CCCNC(=N)N)NC(=O)CNC(=O)CC[C@H](NC(=O)CCCCCCCCCCCCCCCCCCC(=O)O)C(=O)O)C(=O)N[C@@H](CC(N)=O)C(=O)N[C@@H]([C@@H](C)O)C(=O)N[C@@H](C)C(=O)N[C@@H]([C@@H](C)O)C(=O)N1)[C@@H](C)O)C(=O)N1CCC[C@H]1C(=O)N[C@@H](CO)C(=O)N[C@@H](CO)C(=O)N[C@H](C(=O)N[C@@H](CC(N)=O)C(=O)N[C@H](C(=O)NCC(=O)N[C@@H](Cc1c[nH]cn1)C(=O)N[C@@H](CC(N)=O)C(=O)N[C@H](C(=O)N[C@@H](Cc1ccc(O)cc1)C(N)=O)[C@@H](C)O)C(C)C)[C@@H](C)O, Analogue of human amylin extended by Gly at the N-terminus; disulfide and C-terminal amide as told for h-amylin; also called compound 100)
